Test system: shbg-db/db transgenic mice
Assay: Obese diabetic db/db mice expressing human SHBG (shbg-db/db) compared with db/db
Format: in vivo
Excerpt: To shed light to this issue, the inventors developed a unique mouse model that expresses the human SHBG gene and develops obesity, by crossing the human SHBG transgenic mice with the db/db mice.
The human SHBG transgenic mice is the one disclosed by Jänne et al, “Human Sex-Hormone-Binding Globulin Gen Expression in Transgenic Mice”, Molecular Endocrinology—1998, Vol. No. 12 (1), pp: 123-136.
Briefly, these mice were obtained by microinjecting into the pronuclei of a one-cell mouse embryos, a 4.3 kb portion of a human shbg that comprises the 8 exons of the SHBG plus 0.9 kb 5′ of the translation initiation codon in exon 1 and 0.5 kb 3′ from the polyadenylation sequence in exon 8. The one-cell embryos were obtained superovulating CBA×C57BL6 hybrid females with pregnant mare serum and hCG (Sigma Chemical Co. Mississauga, Canada) and mating them with CBA×C57BL6 males. Female CD-1 mice were used to produce pseudopregnant recipients by mating with vasectomized CD-1 males. Injected embryos were implanted into the pseudopregnant recipient mice using a standard protocol. This human transgenic mice over expresses the human shbg gene in vivo. According to Northern blot analysis, the human shbg transcripts are most abundant in liver and kidney. At the cellular level, the human shbg transgenes are expressed in clusters of hepatocytes located mainly within the periportal region of hepatic lobules and in the epithelial cells lining the proximal convoluted tubules of the kidney.
The db/db mice corresponds to the JAX™ Mice Strain: Diabetic Mice db/db (from Charles River; www.criver.com/en-US/Pages/home.aspx). These mice are characterized by having a point mutation in the leptin receptor. In homozygosis the lack of leptin signaling in the hypothalamus will lead to persistent hyperphagia, obesity, type 2 diabetes, dyslipidaemia and fatty liver. In this mice, diabetes (db), which occurred in an inbred strain of mouse, is inherited as a unit autosomal recessive and is characterized by a metabolic disturbance resembling diabetes mellitus in man. Abnormal deposition of fat at 3 to 4 weeks of age is followed shortly by hyperglycemia, polyuria, and glycosuria.
For performing the assays, mice were maintained under standard conditions with food (Global Diet 2018, Harlan Interfauna Iberica, Barcelona, Spain) and water provided ad libitum and a 12 h light/dark cycle. Experimental procedures were approved by the Institutional Animal Use Subcommittees of Hospital Vall d'Hebron Research Institute and the Universitat Autònoma Barcelona.
The mice for experiments in next illustrated assays were of the following four genotypes: • db/+, which means lean mice heterozygous at point mutation in the leptin receptor. • db/db, which means that the mice were homozygous for the point mutation in the leptin receptor and behave a phenotype of persistent hyperphagia, obesity, type 2 diabetes, dyslipidaemia and fatty liver, • shbg-db/+ lean mice heterozygous at point mutation in the leptin receptor and expressing the shbggene • shbg-db/db, which means that the they over-expressed shbg gene in the manner disclosed above and at the same time they had the phenotype of the homozygous db/db mice in relation to hyperphagia, obesity, type 2 diabetes, dyslipidaemia and fatty liver.
Histology and Immunohistochemistry: For morphological studies, 3 animals of each genotype (db/+, db/db, shbg4-db/+ and shbg4-db/db) were used. Livers and adipose tissue were fixed in 4% paraformaldehyde for 24 h and embedded in paraffin. Serial 5-μm thick sections were used for histological examination and stained with hematoxylin-eosin (H&E).
For immunohistochemistry studies, the paraffin sections were de-waxed and incubated at high power in a microwave oven for 10 min in citrate buffer, pH 6.6. The sections were then cooled at room temperature for 20 min and treated with a 0.03% hydrogen peroxide solution for 7 min, prior to incubation (overnight at 4° C.) with rabbit antibodies against F4/80. […]

[1] = adipose tissue, shbg-db/db vs db/db mice
[2] = shbg-db/db vs db/db mice, 4 to 12 weeks of age
[3] = shbg-db/db vs db/db mice, relative to 18S mRNA
[4] = shbg-db/db vs db/db mice, sacrificed at 6 weeks
[5] = shbg-db/db vs db/db mice, western blot

B1: SHBG: native human protein purified from healthy human serums (included SEQ ID NO: 1); in mice and HepG2 expressed from human shbg transgene/vector (protein, listed as Homo sapiens)
chain: MESRGPLATSRLLLLLLLLLLRHTRQGWALRPVLPTQSAHDPPAVHLSNGPGQEPIAVMTFDLTKITKTSSSFEVRTWDPEGVIFYGDTNPKDDWFMLGLRDGRPEIQLHNHWAQLTVGAGPRLDDGRWHQVEVKMEGDSVLLEVDGEEVLRLRQVSGPLTSKRHPIMRIALGGLLFPASNLRLPLVPALDGCLRRDSWLDKQAEISASAPTSLRSCDVESNPGIFLPPGTQAEFNLRDIPQPHAEPWAFSLDLGLKQAAGSGHLLALGTPENPSWLSLHLQDQKVVLSSGSGPGLDLPLVLGLPLQLKLSMSRVVLSQGSKMKALALPPLGLAPLLNLWAKPQGRLFLGALPGEDSSTSFCLNGLWAQGQRLDVDQALNRSHEIWTHSCPQSPGNGTDASH
[1]
  Adiponectin mRNA levels: increased significantly
  IL6 mRNA levels: reduced in shbg-db/db mice when compared with db/db mice but it was not statistically significant
  IL-1β mRNA levels: significantly reduced
  TNF-α mRNA levels: significantly reduced
Genotype shbg-db/+ (lean mice expressing human SHBG), db/+ control 74.99 ± 4.17
  Triglyceride amounts in liver: 88.88 ± 12.84 Nmol TGs/tissue g
Genotype shbg-db/db (obese mice expressing human SHBG), db/db control 421.92 ± 58.6
  Triglyceride amounts in liver: 314.64 ± 41.37 Nmol TGs/tissue g
Liver and adipose tissue, shbg-db/db vs db/db mice
  macrophage infiltration (F4/80 immunohistochemistry): less macrophage infiltration in both liver and adipose tissue
shbg-db/db vs db/db mice
  hepatic lipogenesis: Reducing Hepatic Lipogenesis
  inflammation: Lowers Inflammation
[2]
  blood glucose levels: not Blood Glucose Levels
  weight gain (body weight): Reduces Weight Gain
shbg-db/db vs db/db mice, liver histology
  hepatic steatosis: Reduces
[3]
  liver ACC mRNA levels: significantly lower
  liver FAS mRNA levels: significantly lower
[4]
  adipocyte size: Reduces
  adipose tissue weight (VAT): Reduces Adipose Tissue Weight
  liver weight: Reduces Liver Weight
[5]
  liver ACC protein levels: reduced ACC protein levels
  liver FAS protein levels: significantly lower FAS protein levels
